{
  "source": "IntAct's records for PubMed 25416956",
  "parents": {"B1": {"name": "Plakophilin-2 (Homo sapiens), Q99959 (parent)", "chain": "MAAPGAPAEYGYIRTVLGQQILGQLDSSSLALPSEAKLKLAGSSGRGGQTVKSLRIQEQVQQTLARKGRSSVGNGNLHRTSSVPEYVYNLHLVENDFVGGRSPVPKTYDMLKAGTTATYEGRWGRGTAQYSSQKSVEERSLRHPLRRLEISPDSSPERAHYTHSDYQYSQRSQAGHTLHHQESRRAALLVPPRYARSEIVGVSRAGTTSRQRHFDTYHRQYQHGSVSDTVFDSIPANPALLTYPRPGTSRSMGNLLEKENYLTAGLTVGQVRPLVPLQPVTQNRASRSSWHQSSFHSTRTLREAGPSVAVDSSGRRAHLTVGQAAAGGSGNLLTERSTFTDSQLGNADMEMTLERAVSMLEADHMLPSRISAAATFIQHECFQKSEARKRVNQLRGILKLLQLLKVQNEDVQRAVCGALRNLVFEDNDNKLEVAELNGVPRLLQVLKQTRDLETKKQITDHTVNLRSRNGWPGAVAHACNPSTLGGQGGRITRSGVRDQPDQHGLLWNLSSNDKLKNLMITEALLTLTENIIIPFSGWPEGDYPKANGLLDFDIFYNVTGCLRNMSSAGADGRKAMRRCDGLIDSLVHYVRGTIADYQPDDKATENCVCILHNLSYQLEAELPEKYSQNIYIQNRNIQTDNNKSIGCFGSRSRKVKEQYQDVPMPEEKSNPKGVEWLWHSIVIRMYLSLIAKSVRNYTQEASLGALQNLTAGSGPMPTSVAQTVVQKESGLQHTRKMLHVGDPSVKKTAISLLRNLSRNLSLQNEIAKETLPDLVSIIPDTVPSTDLLIETTASACYTLNNIIQNSYQNARDLLNTGGIQKIMAISAGDAYASNKASKAASVLLYSLWAHTELHHAYKKAQFKKTDFVNSRTAKAYHSLKD", "partner": "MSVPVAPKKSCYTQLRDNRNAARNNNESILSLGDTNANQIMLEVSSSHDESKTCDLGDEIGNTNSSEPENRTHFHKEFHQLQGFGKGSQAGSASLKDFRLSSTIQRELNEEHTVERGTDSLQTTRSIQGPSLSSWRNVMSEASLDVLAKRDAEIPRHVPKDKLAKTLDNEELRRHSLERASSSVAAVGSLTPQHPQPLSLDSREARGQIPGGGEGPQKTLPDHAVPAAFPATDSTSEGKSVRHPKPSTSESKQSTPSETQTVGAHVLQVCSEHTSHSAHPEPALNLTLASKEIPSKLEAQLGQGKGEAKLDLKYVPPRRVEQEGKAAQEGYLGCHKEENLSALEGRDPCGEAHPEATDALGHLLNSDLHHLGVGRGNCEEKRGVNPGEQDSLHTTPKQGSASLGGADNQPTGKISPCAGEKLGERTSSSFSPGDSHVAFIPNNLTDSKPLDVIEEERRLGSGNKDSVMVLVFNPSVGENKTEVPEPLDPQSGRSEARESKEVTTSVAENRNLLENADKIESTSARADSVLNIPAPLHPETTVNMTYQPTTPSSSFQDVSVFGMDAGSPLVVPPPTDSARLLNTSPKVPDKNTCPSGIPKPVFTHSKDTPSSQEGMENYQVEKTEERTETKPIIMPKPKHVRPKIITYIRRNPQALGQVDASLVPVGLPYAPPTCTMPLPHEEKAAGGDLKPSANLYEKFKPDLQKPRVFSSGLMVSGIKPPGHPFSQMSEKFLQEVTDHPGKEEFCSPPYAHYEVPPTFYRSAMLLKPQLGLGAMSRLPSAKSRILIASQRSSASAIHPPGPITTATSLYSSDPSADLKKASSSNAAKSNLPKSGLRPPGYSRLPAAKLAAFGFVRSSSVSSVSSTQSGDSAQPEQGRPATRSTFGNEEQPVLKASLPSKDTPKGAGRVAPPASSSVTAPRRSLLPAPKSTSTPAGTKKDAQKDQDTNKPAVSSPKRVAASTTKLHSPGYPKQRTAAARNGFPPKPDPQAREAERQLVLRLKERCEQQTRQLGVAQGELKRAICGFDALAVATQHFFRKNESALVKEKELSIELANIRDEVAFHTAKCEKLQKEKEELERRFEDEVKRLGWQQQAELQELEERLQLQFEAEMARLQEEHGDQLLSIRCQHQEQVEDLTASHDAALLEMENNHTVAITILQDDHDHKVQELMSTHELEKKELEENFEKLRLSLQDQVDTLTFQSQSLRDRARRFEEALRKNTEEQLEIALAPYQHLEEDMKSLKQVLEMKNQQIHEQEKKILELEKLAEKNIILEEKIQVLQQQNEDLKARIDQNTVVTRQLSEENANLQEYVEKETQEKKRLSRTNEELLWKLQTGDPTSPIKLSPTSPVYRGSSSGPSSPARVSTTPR"}, "B2": {"name": "EF-hand domain-containing protein 1 (Homo sapiens), Q5JVL4 (parent)", "chain": "MVSNPVHGLPFLPGTSFKDSTKTAFHRSQTLSYRNGYAIVRRPTVGIGGDRLQFNQLSQAELDELASKAPVLTYGQPKQAPPADFIPAHVAFDKKVLKFDAYFQEDVPMSTEEQYRIRQVNIYYYLEDDSMSVIEPVVENSGILQGKLIKRQRLAKNDRGDHYHWKDLNRGINITIYGKTFRVVDCDQFTQVFLESQGIELNPPEKMALDPYTELRKQPLRKYVTPSDFDQLKQFLTFDKQVLRFYAIWDDTDSMYGECRTYIIHYYLMDDTVEIREVHERNDGRDPFPLLMNRQRVPKVLVENAKNFPQCVLEISDQEVLEWYTAKDFIVGKSLTILGRTFFIYDCDPFTRRYYKEKFGITDLPRIDVSKREPPPVKQELPPYNGFGLVEDSAQNCFALIPKAPKKDVIKMLVNDNKVLRYLAVLESPIPEDKDRRFVFSYFLATDMISIFEPPVRNSGIIGGKYLGRTKVVKPYSTVDNPVYYGPSDFFIGAVIEVFGHRFIILDTDEYVLKYMESNAAQYSPEALASIQNHVRKREAPAPEAESKQTEKDPGVQELEALIDTIQKQLKDHSCKDNIREAFQIYDKEASGYVDRDMFFKICESLNVPVDDSLVKELIRMCSHGEGKINYYNFVRAFSN", "partner": "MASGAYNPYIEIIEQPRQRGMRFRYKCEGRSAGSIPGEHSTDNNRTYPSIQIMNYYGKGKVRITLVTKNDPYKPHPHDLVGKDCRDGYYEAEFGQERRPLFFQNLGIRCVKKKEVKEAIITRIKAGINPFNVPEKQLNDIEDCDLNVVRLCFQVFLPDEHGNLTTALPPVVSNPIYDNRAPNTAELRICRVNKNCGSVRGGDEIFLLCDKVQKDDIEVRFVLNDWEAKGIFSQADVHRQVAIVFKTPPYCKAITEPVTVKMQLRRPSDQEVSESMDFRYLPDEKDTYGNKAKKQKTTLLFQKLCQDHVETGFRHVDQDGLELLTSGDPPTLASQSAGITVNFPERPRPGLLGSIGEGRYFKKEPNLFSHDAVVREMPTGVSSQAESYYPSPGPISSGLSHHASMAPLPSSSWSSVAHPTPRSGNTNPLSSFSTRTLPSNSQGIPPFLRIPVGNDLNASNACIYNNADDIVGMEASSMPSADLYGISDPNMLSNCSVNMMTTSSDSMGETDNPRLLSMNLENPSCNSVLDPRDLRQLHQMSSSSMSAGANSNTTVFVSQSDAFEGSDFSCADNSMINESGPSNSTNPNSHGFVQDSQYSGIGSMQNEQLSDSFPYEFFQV"}, "B3": {"name": "Proton-coupled zinc antiporter SLC30A8 (Homo sapiens), Q8IWU4 (parent)", "chain": "MEFLERTYLVNDKAAKMYAFTLESVELQQKPVNKDQCPRERPEELESGGMYHCHSGSKPTEKGANEYAYAKWKLCSASAICFIFMIAEVVGGHIAGSLAVVTDAAHLLIDLTSFLLSLFSLWLSSKPPSKRLTFGWHRAEILGALLSILCIWVVTGVLVYLACERLLYPDYQIQATVMIIVSSCAVAANIVLTVVLHQRCLGHNHKEVQANASVRAAFVHALGDLFQSISVLISALIIYFKPEYKIADPICTFIFSILVLASTITILKDFSILLMEGVPKSLNYSGVKELILAVDGVLSVHSLHIWSLTMNQVILSAHVATAASRDSQVVRREIAKALSKSFTMHSLTIQMESPVDQDPDCLFCEDPCD", "partner": "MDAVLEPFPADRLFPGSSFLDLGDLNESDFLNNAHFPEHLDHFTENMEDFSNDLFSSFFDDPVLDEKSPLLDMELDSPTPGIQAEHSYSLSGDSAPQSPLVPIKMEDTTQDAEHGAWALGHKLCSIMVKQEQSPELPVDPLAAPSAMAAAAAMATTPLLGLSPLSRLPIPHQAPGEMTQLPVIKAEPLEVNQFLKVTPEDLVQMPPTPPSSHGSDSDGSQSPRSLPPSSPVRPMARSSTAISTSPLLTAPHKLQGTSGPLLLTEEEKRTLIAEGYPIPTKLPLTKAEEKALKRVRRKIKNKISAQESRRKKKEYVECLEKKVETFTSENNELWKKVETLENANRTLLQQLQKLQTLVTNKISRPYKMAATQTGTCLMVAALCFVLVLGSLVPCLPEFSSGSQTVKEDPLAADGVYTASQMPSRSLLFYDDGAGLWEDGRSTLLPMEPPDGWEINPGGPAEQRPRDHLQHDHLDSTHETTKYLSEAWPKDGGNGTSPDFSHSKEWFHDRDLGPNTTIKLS"}, "B4": {"name": "DNA ligase 4 (Homo sapiens), P49917 (parent)", "chain": "MAASQTSQTVASHVPFADLCSTLERIQKSKGRAEKIRHFREFLDSWRKFHDALHKNHKDVTDSFYPAMRLILPQLERERMAYGIKETMLAKLYIELLNLPRDGKDALKLLNYRTPTGTHGDAGDFAMIAYFVLKPRCLQKGSLTIQQVNDLLDSIASNNSAKRKDLIKKSLLQLITQSSALEQKWLIRMIIKDLKLGVSQQTIFSVFHNDAAELHNVTTDLEKVCRQLHDPSVGLSDISITLFSAFKPMLAAIADIEHIEKDMKHQSFYIETKLDGERMQMHKDGDVYKYFSRNGYNYTDQFGASPTEGSLTPFIHNAFKADIQICILDGEMMAYNPNTQTFMQKGTKFDIKRMVEDSDLQTCYCVFDVLMVNNKKLGHETLRKRYEILSSIFTPIPGRIEIVQKTQAHTKNEVIDALNEAIDKREEGIMVKQPLSIYKPDKRGEGWLKIKPEYVSGLMDELDILIVGGYWGKGSRGGMMSHFLCAVAEKPPPGEKPSVFHTLSRVGSGCTMKELYDLGLKLAKYWKPFHRKAPPSSILCGTEKPEVYIEPCNSVIVQIKAAEIVPSDMYKTGCTLRFPRIEKIRDDKEWHECMTLDDLEQLRGKASGKLASKHLYIGGDDEPQEKKRKAAPKMKKVIGIIEHLKAPNLTNVNKISNIFEDVEFCVMSGTDSQPKPDLENRIAEFGGYIVQNPGPDTYCVIAGSENIRVKNIILSNKHDVVKPAWLLECFKTKSFVPWQPRFMIHMCPSTKEHFAREYDCYGDSYFIDTDLNQLKEVFSGIKNSNEQTPEEMASLIADLEYRYSWDCSPLSMFRRHTVYLDSYAVINDLSTKNEGTRLAIKALELRFHGAKVVSCLAEGVSHVIIGEDHSRVADFKAFRRTFKRKFKILKESWVTDSIDKCELQEENQYLI"}, "B5": {"name": "Keratin, type II cytoskeletal 6A (Homo sapiens), P02538 (parent)", "chain": "MASTSTTIRSHSSSRRGFSANSARLPGVSRSGFSSVSVSRSRGSGGLGGACGGAGFGSRSLYGLGGSKRISIGGGSCAISGGYGSRAGGSYGFGGAGSGFGFGGGAGIGFGLGGGAGLAGGFGGPGFPVCPPGGIQEVTVNQSLLTPLNLQIDPTIQRVRAEEREQIKTLNNKFASFIDKVRFLEQQNKVLETKWTLLQEQGTKTVRQNLEPLFEQYINNLRRQLDSIVGERGRLDSELRGMQDLVEDFKNKYEDEINKRTAAENEFVTLKKDVDAAYMNKVELQAKADTLTDEINFLRALYDAELSQMQTHISDTSVVLSMDNNRNLDLDSIIAEVKAQYEEIAQRSRAEAESWYQTKYEELQVTAGRHGDDLRNTKQEIAEINRMIQRLRSEIDHVKKQCANLQAAIADAEQRGEMALKDAKNKLEGLEDALQKAKQDLARLLKEYQELMNVKLALDVEIATYRKLLEGEECRLNGEGVGQVNISVVQSTVSSGYGGASGVGSGLGLGGGSSYSYGSGLGVGGGFSSSSGRAIGGGLSSVGGGSSTIKYTTTSSSSRKSYKH"}},
  "data": [
    {"variants_of": "B1", "details": "with mtus2_human MTUS2, Q5JR59", "values": [
      {"variant": "S644P", "effect of a mutation on the interaction": "disrupting interaction"}
    ]},
    {"variants_of": "B2", "details": "with rel_human REL", "values": [
      {"variant": "T508R", "effect of a mutation on the interaction": "disrupting interaction"}
    ]},
    {"variants_of": "B2", "details": "with rel_human REL", "remark": "another data set of the same source", "values": [
      {"variant": "A394S", "effect of a mutation on the interaction": "disrupting interaction"}
    ]},
    {"variants_of": "B2", "details": "with rel_human REL", "remark": "another data set of the same source", "values": [
      {"variant": "P77T", "effect of a mutation on the interaction": "disrupting interaction"}
    ]},
    {"variants_of": "B2", "details": "with rel_human REL", "remark": "another data set of the same source", "values": [
      {"variant": "R221H", "effect of a mutation on the interaction": "disrupting interaction"}
    ]},
    {"variants_of": "B3", "details": "with cr3l1_human CREB3L1, Q96BA8", "values": [
      {"variant": "E276W", "effect of a mutation on the interaction": "disrupting interaction"}
    ]},
    {"variants_of": "B4", "details": "with xrcc4_human XRCC4, Q13426", "values": [
      {"variant": "A3V", "effect of a mutation on the interaction": "disrupting interaction"}
    ]},
    {"variants_of": "B5", "details": "with tfp11_human TFIP11, Q9UBB9", "values": [
      {"variant": "A463P", "effect of a mutation on the interaction": "disrupting interaction"}
    ]}
  ]
}
